Measured values as given in paper PMC9342958.

Molecular target: CARD9 CARD fused to mEos3.1 (human)
Experiment: FRET or BRET; DAmFRET (Distributed Amphifluoric FRET) in living S. cerevisiae: protein fused to mEos3.1, GAL promoter, about 16 hr in galactose, part of mEos3.1 photoconverted to the acceptor form, AmFRET against expression level by flow cytometry

- threshold concentration of polymerisation: 100 µM
Substance: CARD9 CARD fused to mEos3.1 (domain or fragment)
